Measured values as given in paper PMC3705450.
Where a chain is given by its changes, count along the chain named. Where two headings read alike, the source gives them in different places.

How the values were obtained:
Test in all cases: EMSA
LuxR [1] = biological target: T1, LuxR (Vibrio harveyi, UniProt P21308 1-205)
T1 sequence: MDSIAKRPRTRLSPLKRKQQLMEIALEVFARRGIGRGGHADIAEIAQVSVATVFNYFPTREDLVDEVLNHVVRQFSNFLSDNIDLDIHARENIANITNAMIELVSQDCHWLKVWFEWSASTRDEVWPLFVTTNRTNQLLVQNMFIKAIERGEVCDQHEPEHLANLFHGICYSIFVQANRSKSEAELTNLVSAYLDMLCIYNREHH

LuxR T52M/I24V [2] = biological target: T2, LuxR T52M/I24V (Vibrio harveyi, UniProt P21308 1-205, T52M;I24V)
T2 sequence: T1 sequence with I24V, T52M

LuxR N55I [3] = biological target: T3, LuxR N55I (Vibrio harveyi, UniProt P21308 1-205, N55I)
T3 sequence: T1 sequence with N55I

LuxR T52M/I24V [4] = biological target: T2, LuxR T52M/I24V; remark: listed apart in the source
LuxR L139P = biological target: T4, LuxR L139P (Vibrio harveyi, UniProt P21308 1-205, L139P)
T4 sequence: T1 sequence with L139P

LuxR [5] = biological target: T1, LuxR; remark: listed apart in the source
LuxR [6] = biological target: T1, LuxR; remark: listed apart in the source
LuxR N55I [7] = biological target: T3, LuxR N55I; remark: listed apart in the source
LuxR [8] = biological target: T1, LuxR; remark: listed apart in the source
LuxR [9] = biological target: T1, LuxR; remark: listed apart in the source

B1: P05222 site G to T + T to C (dsDNA)
DNA 1: GTGCAACAAAATATTGACTTTTTTGTCAGTAAGGATCCGGTGATTG
DNA 2: CAATCACCGGATCCTTACTGACAAAAAAGTCAATATTTTGTTGCAC
- binding result (LuxR [1]): binds
- binding result (LuxR T52M/I24V [2]): binds

B2: PluxC site 1 (dsDNA)
DNA 1: TTACTTATTTATAGTGTTACAAATAACATTA
DNA 2: TAATGTTATTTGTAACACTATAAATAAGTAA
- binding result (LuxR N55I [3]): binds
- binding result (LuxR T52M/I24V [4]): no binding
- binding result (LuxR L139P): binds
- binding result (LuxR [5]): binds

B3: P05222 site 31mer (dsDNA)
DNA 1: CTAGTACTGACAAAAAAGTTAATATTTTGTT
DNA 2: AACAAAATATTAACTTTTTTGTCAGTACTAG
- Kd (LuxR [6]): 0.7 nM
- Kd (LuxR T52M/I24V [4]): 56.6 nM

B4: PluxC site 2 (dsDNA)
DNA 1: ACTAATTATAAATAAATCAAACTATAATTAGA
DNA 2: TCTAATTATAGTTTGATTTATTTATAATTAGT
- Kd (LuxR [6]): 103 nM
- binding result (LuxR N55I [7]): no binding
- binding result (LuxR L139P): binds

B5: aphA promoter BS* randomized 31mer (dsDNA)
DNA 1: TTTACGTTACTTGTTGGTAAATTTTATATAT
DNA 2: ATATATAAAATTTACCAACAAGTAACGTAAA
- binding result (LuxR [8]): no binding

B6: PluxC site 3 (dsDNA)
DNA 1: TTATTTAAATGATATAAATATAAATAACATCA
DNA 2: TGATGTTATTTATATTTATATCATTTAAATAA
- Kd (LuxR [6]): 0.6 nM

B7: P05222 28 bp (dsDNA)
DNA 1: CTAGTACTGACAAAAAAGTTAATATTTT
DNA 2: AAAATATTAACTTTTTTGTCAGTACTAG
- binding result (LuxR [9]): binds
